pKd: −log10 of the molar value.
How the values were obtained:
Experiment in all cases: SPR
[1] = biological target: Core.HXB2 (core gp120 of HIV-1 strain HxB2, wild-type CD4 binding site) (HIV-1 strain HxB2)
[2] = biological target: Core.BaL-GT1 (germline-targeting variant of core gp120) (HIV-1 strain BaL (from the name))
[3] = biological target: eOD-GT6 (germline-targeting engineered outer domain of gp120) (HIV-1 strain HxB2)

Substance | pKd [1] | pKd [2] | pKd [3]
GL-12A12 (predicted germline precursor of 12A12) (antibody) | < 4.00 |  | 
GL-PGV04 (predicted germline precursor of PGV04) (antibody) | < 4.00 | < 4.00 | 
12A12 (mature) (antibody) | 8.22 |  | 
GL-VRC-CH31 (predicted germline precursor of VRC-CH31) (antibody) | < 4.00 |  | 
GL-PGV19 (predicted germline precursor of PGV19) (antibody) | < 4.00 |  | 7.72
GL-3BNC60 (predicted germline precursor of 3BNC60) (antibody) | < 4.00 |  | 
3BNC60 (mature) (antibody) |  | 8.40 | 
GL-PGV20 (predicted germline precursor of PGV20) (antibody) | < 4.00 |  | 
GL-NIH45-46 (predicted germline precursor of NIH45-46) (antibody) |  | < 4.00 | 
PGV20 (mature) (antibody) | 7.72 | 8.40 | 8.22
